Columns and labels:
[1] = target: T1, soluble human FcRn complexed with β2-microglobulin (human, UniProt P61769 21-119, limits assumed); assay: Biacore SPR, pH 7.0;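 further: test antibodies captured on a Protein L chip with human FcRn flowed over as analyte, KD obtained as the ratio of dissociation to association rate constants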
T1 construct: also called hFcRn

human FcγRIIIa(F) = target: T2, human FcγRIIIa(F) (human, UniProt P08637 17-208, limits assumed); assay: SPR (Biacore);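 further: antibody variants captured on sensor chip, Fcγ receptor flowed over at 25 °C, bound receptor normalized to amount of captured antibody, expressed relative to reference antibody set as 100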
T2 construct: also called FcgRIIIaF; allotype F158

human FcγRIa = target: T3, human FcγRIa (human, UniProt P12314 16-292, limits assumed); assay: SPR (Biacore);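 further: antibody variants captured on sensor chip, Fcγ receptor flowed over at 25 °C, bound receptor normalized to amount of captured antibody, expressed relative to reference antibody set as 100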
T3 construct: also called FcgRIa; FcγRI (CD64)

human FcγRIIa(R) = target: T4, human FcγRIIa(R) (human, UniProt P12318 36-217); assay: SPR (Biacore);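 further: antibody variants captured on sensor chip, Fcγ receptor flowed over at 25 °C, bound receptor normalized to amount of captured antibody, expressed relative to reference antibody set as 100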
T4 construct: also called FcgRIIaR; FcγRIIa type R
T4 chain: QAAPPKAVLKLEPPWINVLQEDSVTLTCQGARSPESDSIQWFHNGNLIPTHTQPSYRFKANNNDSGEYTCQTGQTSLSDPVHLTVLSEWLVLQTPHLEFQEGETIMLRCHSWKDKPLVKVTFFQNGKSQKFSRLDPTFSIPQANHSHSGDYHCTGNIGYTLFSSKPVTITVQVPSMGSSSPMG

human FcγRIIa(H) = target: T5, human FcγRIIa(H) (human, UniProt P12318 36-217); assay: SPR (Biacore);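 further: antibody variants captured on sensor chip, Fcγ receptor flowed over at 25 °C, bound receptor normalized to amount of captured antibody, expressed relative to reference antibody set as 100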
T5 construct: also called FcgRIIaH; FcγRIIa type H
T5 sequence: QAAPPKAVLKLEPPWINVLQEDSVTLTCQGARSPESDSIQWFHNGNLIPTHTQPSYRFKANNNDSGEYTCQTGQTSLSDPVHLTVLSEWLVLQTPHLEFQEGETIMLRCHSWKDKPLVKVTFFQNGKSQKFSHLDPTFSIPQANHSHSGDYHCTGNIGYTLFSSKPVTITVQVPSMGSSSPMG

human FcγRIIb = target: T6, human FcγRIIb (human, UniProt P31994 43-217, limits assumed); assay: SPR (Biacore)
T6 construct: also called FcgRIIb
T6 sequence: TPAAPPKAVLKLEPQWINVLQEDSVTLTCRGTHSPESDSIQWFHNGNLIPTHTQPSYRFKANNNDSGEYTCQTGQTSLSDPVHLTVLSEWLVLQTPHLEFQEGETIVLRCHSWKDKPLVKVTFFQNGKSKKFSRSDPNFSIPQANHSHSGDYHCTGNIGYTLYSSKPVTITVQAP

T1 sequence (chain, as listed by the source limits assumed, chain 1 of 2): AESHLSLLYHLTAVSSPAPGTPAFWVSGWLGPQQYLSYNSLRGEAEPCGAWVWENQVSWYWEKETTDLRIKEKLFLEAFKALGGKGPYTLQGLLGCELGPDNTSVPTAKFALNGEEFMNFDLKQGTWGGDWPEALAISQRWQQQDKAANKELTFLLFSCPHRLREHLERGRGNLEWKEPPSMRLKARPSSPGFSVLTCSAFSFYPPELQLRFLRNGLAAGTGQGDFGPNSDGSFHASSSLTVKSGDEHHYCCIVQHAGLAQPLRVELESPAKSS
T1 sequence (P61769 21-119 limits assumed, chain 2 of 2): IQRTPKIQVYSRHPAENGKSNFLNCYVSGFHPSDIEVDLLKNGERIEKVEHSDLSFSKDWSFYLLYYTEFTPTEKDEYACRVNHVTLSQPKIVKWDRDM
T3 sequence (P12314 16-292 limits assumed): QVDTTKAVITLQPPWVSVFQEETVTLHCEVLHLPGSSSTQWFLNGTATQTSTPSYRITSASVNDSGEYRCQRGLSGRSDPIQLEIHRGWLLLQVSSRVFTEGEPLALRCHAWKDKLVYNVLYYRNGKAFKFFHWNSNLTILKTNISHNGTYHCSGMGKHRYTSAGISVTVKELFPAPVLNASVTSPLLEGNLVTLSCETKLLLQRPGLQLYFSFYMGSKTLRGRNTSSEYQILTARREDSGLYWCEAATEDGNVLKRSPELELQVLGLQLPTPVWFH
T2 sequence (P08637 other isoform, or with tags, fused parts or gaps limits assumed): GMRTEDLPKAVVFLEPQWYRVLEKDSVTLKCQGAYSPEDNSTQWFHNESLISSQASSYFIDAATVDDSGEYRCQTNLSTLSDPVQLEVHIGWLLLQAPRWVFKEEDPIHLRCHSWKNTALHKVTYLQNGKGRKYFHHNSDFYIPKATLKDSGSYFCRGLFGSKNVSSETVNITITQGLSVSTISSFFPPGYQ

B1: IgG1-F1376 (antibody)
heavy: QVQLQESGPGLVKPSETLSLTCAVSGHSISHDHAWSWVRQPPGEGLEWIGFISYSGITNYNPSLQGRVTISRDNSKNTLYLQMNSLRAEDTAVYYCARSLARTTAMDYWGEGTLVTVSSASTKGPSVFPLAPSSKSTSGGTAALGCLVKDYFPEPVTVSWNSGALTSGVHTFPAVLQSSGLYSLSSVVTVPSSSLGTQTYICNVNHKPSNTKVDKKVEPKSCDKTHTCPPCPAPELRGGPKVFLFPPKPKDTLYITREPEVTCVVVDVSHEDPEVKFNWYVDGVEVHNAKTKPREEQYNSTYRVVSVLTVLHQDWLNGKEYKCKVSNKALPAPIEKTISKAKGQPREPQVYTLPPSRDELTKNQVSLTCLVKGFYPSDIAVEWESNGQPENNYKTTPPVLDSDGSFFLYSKLTVDKSRWQQGNVFSCSVMHEALHYHVTQKSLSLSP
light: not shown
notes: EU numbering; copies: 2 + 2
- Kd [1]: 90.9 nM

B2: IgG1-F1377 (antibody)
heavy: QVQLQESGPGLVKPSETLSLTCAVSGHSISHDHAWSWVRQPPGEGLEWIGFISYSGITNYNPSLQGRVTISRDNSKNTLYLQMNSLRAEDTAVYYCARSLARTTAMDYWGEGTLVTVSSASTKGPSVFPLAPSSKSTSGGTAALGCLVKDYFPEPVTVSWNSGALTSGVHTFPAVLQSSGLYSLSSVVTVPSSSLGTQTYICNVNHKPSNTKVDKKVEPKSCDKTHTCPPCPAPELRGGPKVFLFPPKPKDTLYISREPEVTCVVVDVSHEDPEVKFNWYVDGVEVHNAKTKPREEQYNSTYRVVSVLTVLHQDWLNGKEYKCKVSNKALPAPIEKTISKAKGQPREPQVYTLPPSRDELTKNQVSLTCLVKGFYPSDIAVEWESNGQPENNYKTTPPVLDSDGSFFLYSKLTVDKSRWQQGNVFSCSVMHEALHYHVTQKSLSLSP
light: not shown
notes: EU numbering; copies: 2 + 2
- Kd [1]: 82.7 nM

B3: IgG1-F1378 (antibody)
heavy: QVQLQESGPGLVKPSETLSLTCAVSGHSISHDHAWSWVRQPPGEGLEWIGFISYSGITNYNPSLQGRVTISRDNSKNTLYLQMNSLRAEDTAVYYCARSLARTTAMDYWGEGTLVTVSSASTKGPSVFPLAPSSKSTSGGTAALGCLVKDYFPEPVTVSWNSGALTSGVHTFPAVLQSSGLYSLSSVVTVPSSSLGTQTYICNVNHKPSNTKVDKKVEPKSCDKTHTCPPCPAPELRGGPKVFLFPPKPKDTLYISRTPEVTCVVVDVSHEDPEVKFNWYVDGVEVHNAKTKPREEQYNSTYRVVSVLTVLHQDWLNGKEYKCKVSNKALPAPIEKTISKAKGQPREPQVYTLPPSRDELTKNQVSLTCLVKGFYPSDIAVEWESNGQPENNYKTTPPVLDSDGSFFLYSKLTVDKSRWQQGNVFSCSVMHEALHYHTTQKSLSLSP
light: not shown
notes: EU numbering; copies: 2 + 2
- Kd [1]: 361 nM

B4: IgG1-F1379 (antibody)
heavy: QVQLQESGPGLVKPSETLSLTCAVSGHSISHDHAWSWVRQPPGEGLEWIGFISYSGITNYNPSLQGRVTISRDNSKNTLYLQMNSLRAEDTAVYYCARSLARTTAMDYWGEGTLVTVSSASTKGPSVFPLAPSSKSTSGGTAALGCLVKDYFPEPVTVSWNSGALTSGVHTFPAVLQSSGLYSLSSVVTVPSSSLGTQTYICNVNHKPSNTKVDKKVEPKSCDKTHTCPPCPAPELRGGPKVFLFPPKPKDTLYISRTPEVTCVVVDVSHEDPEVKFNWYVDGVEVHNAKTKPREEQYNSTYRVVSVLTVLHQDWLNGKEYKCKVSNKALPAPIEKTISKAKGQPREPQVYTLPPSRDELTKNQVSLTCLVKGFYPSDIAVEWESNGQPENNYKTTPPVLDSDGSFFLYSKLTVDKSRWQQGNVFSCSVMHEALHYHFTQKSLSLSP
light: not shown
notes: EU numbering; copies: 2 + 2
- Kd [1]: 285 nM

B5: GpH7-B3 variant E269H/GpL16-k0 (antibody, human IgG1)
heavy: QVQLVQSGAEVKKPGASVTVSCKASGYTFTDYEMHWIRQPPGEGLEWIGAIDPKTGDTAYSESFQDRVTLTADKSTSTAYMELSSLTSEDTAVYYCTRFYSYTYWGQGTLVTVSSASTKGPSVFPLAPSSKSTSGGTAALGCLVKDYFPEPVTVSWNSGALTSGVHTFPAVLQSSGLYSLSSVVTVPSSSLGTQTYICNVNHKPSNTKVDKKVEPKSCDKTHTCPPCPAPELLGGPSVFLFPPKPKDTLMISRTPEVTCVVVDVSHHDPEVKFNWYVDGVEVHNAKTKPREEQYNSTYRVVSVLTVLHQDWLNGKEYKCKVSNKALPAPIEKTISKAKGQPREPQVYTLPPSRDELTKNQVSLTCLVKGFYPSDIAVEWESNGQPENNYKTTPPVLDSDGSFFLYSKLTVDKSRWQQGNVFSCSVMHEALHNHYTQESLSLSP
light: DIVMTQSPLSLPVTPGEPASISCQASESLVHSNRNTYLHWYLQKPGQSPQLLIYKVSNRFSGVPDRFSGSGSGTDFTLKISRVEAEDVGVYYCSQNTHVPPTFGQGTKVEIE
notes: copies: 2 + 2
- relative binding activity (human FcγRIIIa(F)): 12 % of GpH7-B3/GpL16-k0
- relative binding activity (human FcγRIa): 95 % of GpH7-B3/GpL16-k0
- relative binding activity (human FcγRIIa(R)): 12 % of GpH7-B3/GpL16-k0
- relative binding activity (human FcγRIIa(H)): 24 % of GpH7-B3/GpL16-k0

B6: GpH7-B3 variant L234G/GpL16-k0 (antibody, human IgG1)
heavy: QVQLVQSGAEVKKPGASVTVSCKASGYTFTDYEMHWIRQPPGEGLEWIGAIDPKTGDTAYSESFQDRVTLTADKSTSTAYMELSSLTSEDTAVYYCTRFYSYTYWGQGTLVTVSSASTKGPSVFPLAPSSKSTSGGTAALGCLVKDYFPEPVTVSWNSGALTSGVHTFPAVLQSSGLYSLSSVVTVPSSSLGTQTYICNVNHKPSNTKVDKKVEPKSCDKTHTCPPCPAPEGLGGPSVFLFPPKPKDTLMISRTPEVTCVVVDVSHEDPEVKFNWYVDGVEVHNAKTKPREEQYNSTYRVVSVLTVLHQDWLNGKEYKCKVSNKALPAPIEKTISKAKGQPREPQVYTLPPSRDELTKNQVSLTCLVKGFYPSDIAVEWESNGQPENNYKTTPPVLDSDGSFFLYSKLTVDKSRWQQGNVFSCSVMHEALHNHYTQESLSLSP
light: DIVMTQSPLSLPVTPGEPASISCQASESLVHSNRNTYLHWYLQKPGQSPQLLIYKVSNRFSGVPDRFSGSGSGTDFTLKISRVEAEDVGVYYCSQNTHVPPTFGQGTKVEIE
notes: copies: 2 + 2
- relative binding activity (human FcγRIIIa(F)): 11 % of GpH7-B3/GpL16-k0
- relative binding activity (human FcγRIa): 28 % of GpH7-B3/GpL16-k0
- relative binding activity (human FcγRIIa(H)): 11 % of GpH7-B3/GpL16-k0
- relative binding activity (human FcγRIIb): 10 % of GpH7-B3/GpL16-k0

B7: GpH7-B3 variant S239W/GpL16-k0 (antibody, human IgG1)
heavy: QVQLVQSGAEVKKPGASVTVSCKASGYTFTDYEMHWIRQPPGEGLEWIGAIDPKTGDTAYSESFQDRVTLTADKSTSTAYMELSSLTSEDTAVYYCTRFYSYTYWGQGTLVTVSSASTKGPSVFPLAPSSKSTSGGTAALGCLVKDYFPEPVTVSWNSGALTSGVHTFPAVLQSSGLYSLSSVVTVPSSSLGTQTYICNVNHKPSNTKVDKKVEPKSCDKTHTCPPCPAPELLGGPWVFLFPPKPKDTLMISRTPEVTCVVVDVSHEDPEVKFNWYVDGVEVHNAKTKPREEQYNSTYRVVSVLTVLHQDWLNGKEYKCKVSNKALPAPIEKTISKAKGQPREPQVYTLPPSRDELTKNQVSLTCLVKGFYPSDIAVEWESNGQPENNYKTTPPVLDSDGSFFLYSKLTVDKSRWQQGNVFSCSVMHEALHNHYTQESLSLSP
light: DIVMTQSPLSLPVTPGEPASISCQASESLVHSNRNTYLHWYLQKPGQSPQLLIYKVSNRFSGVPDRFSGSGSGTDFTLKISRVEAEDVGVYYCSQNTHVPPTFGQGTKVEIE
notes: copies: 2 + 2
- relative binding activity (human FcγRIIIa(F)): 19 % of GpH7-B3/GpL16-k0
- relative binding activity (human FcγRIa): 69 % of GpH7-B3/GpL16-k0
- relative binding activity (human FcγRIIa(R)): 19 % of GpH7-B3/GpL16-k0
- relative binding activity (human FcγRIIb): 17 % of GpH7-B3/GpL16-k0

B8: GpH7-B3 variant P238E/GpL16-k0 (antibody, human IgG1)
heavy: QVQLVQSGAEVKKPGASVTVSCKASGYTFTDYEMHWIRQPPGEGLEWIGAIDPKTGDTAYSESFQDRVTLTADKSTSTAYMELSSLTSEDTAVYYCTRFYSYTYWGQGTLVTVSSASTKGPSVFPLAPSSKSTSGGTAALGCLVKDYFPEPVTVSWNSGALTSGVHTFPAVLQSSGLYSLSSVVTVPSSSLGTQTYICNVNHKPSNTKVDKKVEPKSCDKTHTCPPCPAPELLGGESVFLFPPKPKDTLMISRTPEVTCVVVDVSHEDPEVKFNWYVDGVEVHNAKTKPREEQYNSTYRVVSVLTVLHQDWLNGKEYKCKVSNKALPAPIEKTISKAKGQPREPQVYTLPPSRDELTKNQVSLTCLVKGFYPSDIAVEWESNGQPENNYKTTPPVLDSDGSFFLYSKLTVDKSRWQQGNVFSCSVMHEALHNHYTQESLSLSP
light: DIVMTQSPLSLPVTPGEPASISCQASESLVHSNRNTYLHWYLQKPGQSPQLLIYKVSNRFSGVPDRFSGSGSGTDFTLKISRVEAEDVGVYYCSQNTHVPPTFGQGTKVEIE
notes: copies: 2 + 2
- relative binding activity (human FcγRIIIa(F)): 1 % of GpH7-B3/GpL16-k0
- relative binding activity (human FcγRIa): 95 % of GpH7-B3/GpL16-k0
- relative binding activity (human FcγRIIa(R)): 21 % of GpH7-B3/GpL16-k0
- relative binding activity (human FcγRIIa(H)): 2 % of GpH7-B3/GpL16-k0

B9: GpH7-B3 variant E269W/GpL16-k0 (antibody, human IgG1)
heavy: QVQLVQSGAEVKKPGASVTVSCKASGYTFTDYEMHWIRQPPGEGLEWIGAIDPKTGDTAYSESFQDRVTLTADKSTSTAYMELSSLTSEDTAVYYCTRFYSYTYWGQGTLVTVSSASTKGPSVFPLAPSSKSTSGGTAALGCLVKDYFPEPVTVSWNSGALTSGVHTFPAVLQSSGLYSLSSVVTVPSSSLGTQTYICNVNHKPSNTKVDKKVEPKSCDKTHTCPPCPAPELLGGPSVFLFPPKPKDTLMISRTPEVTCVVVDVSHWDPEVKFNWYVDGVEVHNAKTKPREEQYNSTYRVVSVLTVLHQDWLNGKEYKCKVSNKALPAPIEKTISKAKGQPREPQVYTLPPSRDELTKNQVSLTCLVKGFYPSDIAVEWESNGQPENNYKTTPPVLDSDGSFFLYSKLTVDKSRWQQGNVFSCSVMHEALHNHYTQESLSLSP
light: DIVMTQSPLSLPVTPGEPASISCQASESLVHSNRNTYLHWYLQKPGQSPQLLIYKVSNRFSGVPDRFSGSGSGTDFTLKISRVEAEDVGVYYCSQNTHVPPTFGQGTKVEIE
notes: copies: 2 + 2
- relative binding activity (human FcγRIa): 96 % of GpH7-B3/GpL16-k0
- relative binding activity (human FcγRIIa(R)): 21 % of GpH7-B3/GpL16-k0
- relative binding activity (human FcγRIIa(H)): 30 % of GpH7-B3/GpL16-k0
- relative binding activity (human FcγRIIb): 13 % of GpH7-B3/GpL16-k0

B10: GpH7-B3 variant G237Y/GpL16-k0 (antibody, human IgG1)
heavy: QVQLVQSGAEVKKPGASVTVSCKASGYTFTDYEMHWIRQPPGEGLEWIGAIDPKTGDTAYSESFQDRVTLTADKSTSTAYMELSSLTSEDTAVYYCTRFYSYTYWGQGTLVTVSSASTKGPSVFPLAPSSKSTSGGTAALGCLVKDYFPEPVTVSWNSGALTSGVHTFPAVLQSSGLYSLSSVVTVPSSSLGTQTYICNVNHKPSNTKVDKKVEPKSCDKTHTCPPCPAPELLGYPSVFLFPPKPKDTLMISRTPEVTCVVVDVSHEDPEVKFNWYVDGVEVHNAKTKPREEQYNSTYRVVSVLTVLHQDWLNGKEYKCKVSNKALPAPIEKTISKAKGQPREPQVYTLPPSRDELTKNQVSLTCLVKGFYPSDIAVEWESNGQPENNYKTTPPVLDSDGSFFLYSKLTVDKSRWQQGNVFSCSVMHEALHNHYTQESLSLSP
light: DIVMTQSPLSLPVTPGEPASISCQASESLVHSNRNTYLHWYLQKPGQSPQLLIYKVSNRFSGVPDRFSGSGSGTDFTLKISRVEAEDVGVYYCSQNTHVPPTFGQGTKVEIE
notes: copies: 2 + 2
- relative binding activity (human FcγRIIIa(F)): 0 % of GpH7-B3/GpL16-k0
- relative binding activity (human FcγRIa): 7 % of GpH7-B3/GpL16-k0
- relative binding activity (human FcγRIIa(R)): 77 % of GpH7-B3/GpL16-k0
- relative binding activity (human FcγRIIa(H)): 4 % of GpH7-B3/GpL16-k0

B11: GpH7-B3 variant S239R/GpL16-k0 (antibody, human IgG1)
heavy: not shown
light: DIVMTQSPLSLPVTPGEPASISCQASESLVHSNRNTYLHWYLQKPGQSPQLLIYKVSNRFSGVPDRFSGSGSGTDFTLKISRVEAEDVGVYYCSQNTHVPPTFGQGTKVEIE
notes: copies: 2 + 2
- relative binding activity (human FcγRIIIa(F)): 1 % of GpH7-B3/GpL16-k0
- relative binding activity (human FcγRIa): 52 % of GpH7-B3/GpL16-k0
- relative binding activity (human FcγRIIa(H)): 13 % of GpH7-B3/GpL16-k0
- relative binding activity (human FcγRIIb): 5 % of GpH7-B3/GpL16-k0

B12: GpH7-B3 variant G236K/GpL16-k0 (antibody, human IgG1)
heavy: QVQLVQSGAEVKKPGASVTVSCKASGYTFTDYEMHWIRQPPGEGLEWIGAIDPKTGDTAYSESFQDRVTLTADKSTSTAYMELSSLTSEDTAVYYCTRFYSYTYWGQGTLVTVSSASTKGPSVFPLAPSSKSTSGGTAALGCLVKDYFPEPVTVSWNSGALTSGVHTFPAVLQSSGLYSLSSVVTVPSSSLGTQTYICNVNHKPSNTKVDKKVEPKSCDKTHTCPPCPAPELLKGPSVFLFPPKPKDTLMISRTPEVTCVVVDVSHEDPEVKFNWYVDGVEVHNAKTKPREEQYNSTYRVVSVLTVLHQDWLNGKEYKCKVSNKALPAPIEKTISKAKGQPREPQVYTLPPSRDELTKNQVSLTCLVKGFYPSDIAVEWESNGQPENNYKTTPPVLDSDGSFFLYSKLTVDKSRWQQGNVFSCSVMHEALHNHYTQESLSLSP
light: DIVMTQSPLSLPVTPGEPASISCQASESLVHSNRNTYLHWYLQKPGQSPQLLIYKVSNRFSGVPDRFSGSGSGTDFTLKISRVEAEDVGVYYCSQNTHVPPTFGQGTKVEIE
notes: copies: 2 + 2
- relative binding activity (human FcγRIIIa(F)): 1 % of GpH7-B3/GpL16-k0
- relative binding activity (human FcγRIa): 13 % of GpH7-B3/GpL16-k0
- relative binding activity (human FcγRIIa(H)): 18 % of GpH7-B3/GpL16-k0
- relative binding activity (human FcγRIIb): 19 % of GpH7-B3/GpL16-k0

B13: GpH7-B3 variant V266F/GpL16-k0 (antibody, human IgG1)
heavy: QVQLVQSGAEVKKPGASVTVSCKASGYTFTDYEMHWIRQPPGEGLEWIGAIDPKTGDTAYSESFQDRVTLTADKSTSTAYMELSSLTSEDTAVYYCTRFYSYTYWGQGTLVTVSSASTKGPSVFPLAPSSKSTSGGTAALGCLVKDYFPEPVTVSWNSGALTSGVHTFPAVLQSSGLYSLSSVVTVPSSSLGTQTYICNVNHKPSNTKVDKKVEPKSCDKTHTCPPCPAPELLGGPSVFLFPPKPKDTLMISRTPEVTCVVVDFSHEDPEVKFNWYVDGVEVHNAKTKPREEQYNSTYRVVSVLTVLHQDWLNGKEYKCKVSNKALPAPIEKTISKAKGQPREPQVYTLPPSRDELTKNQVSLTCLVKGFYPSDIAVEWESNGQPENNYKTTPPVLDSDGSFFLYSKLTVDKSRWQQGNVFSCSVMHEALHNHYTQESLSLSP
light: DIVMTQSPLSLPVTPGEPASISCQASESLVHSNRNTYLHWYLQKPGQSPQLLIYKVSNRFSGVPDRFSGSGSGTDFTLKISRVEAEDVGVYYCSQNTHVPPTFGQGTKVEIE
notes: copies: 2 + 2
- relative binding activity (human FcγRIIIa(F)): 2 % of GpH7-B3/GpL16-k0
- relative binding activity (human FcγRIa): 80 % of GpH7-B3/GpL16-k0
- relative binding activity (human FcγRIIb): 88 % of GpH7-B3/GpL16-k0

B14: GpH7-B3 variant G237A/GpL16-k0 (antibody, human IgG1)
heavy: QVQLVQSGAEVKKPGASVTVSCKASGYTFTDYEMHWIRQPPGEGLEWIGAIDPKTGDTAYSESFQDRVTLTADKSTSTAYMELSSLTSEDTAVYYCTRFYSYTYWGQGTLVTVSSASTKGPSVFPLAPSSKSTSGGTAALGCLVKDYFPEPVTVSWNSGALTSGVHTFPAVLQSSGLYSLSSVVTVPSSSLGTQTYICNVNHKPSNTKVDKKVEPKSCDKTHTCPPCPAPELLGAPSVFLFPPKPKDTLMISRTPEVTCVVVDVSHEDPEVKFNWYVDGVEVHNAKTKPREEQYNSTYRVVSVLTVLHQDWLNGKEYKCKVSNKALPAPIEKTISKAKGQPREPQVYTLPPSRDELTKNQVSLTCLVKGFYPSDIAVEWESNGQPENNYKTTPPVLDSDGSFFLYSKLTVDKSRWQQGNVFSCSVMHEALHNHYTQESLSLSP
light: DIVMTQSPLSLPVTPGEPASISCQASESLVHSNRNTYLHWYLQKPGQSPQLLIYKVSNRFSGVPDRFSGSGSGTDFTLKISRVEAEDVGVYYCSQNTHVPPTFGQGTKVEIE
notes: copies: 2 + 2
- relative binding activity (human FcγRIIIa(F)): 4 % of GpH7-B3/GpL16-k0
- relative binding activity (human FcγRIa): 45 % of GpH7-B3/GpL16-k0
- relative binding activity (human FcγRIIa(R)): 85 % of GpH7-B3/GpL16-k0
- relative binding activity (human FcγRIIb): 49 % of GpH7-B3/GpL16-k0

B15: GpH7-B3 variant E269I/GpL16-k0 (antibody, human IgG1)
heavy: not shown
light: DIVMTQSPLSLPVTPGEPASISCQASESLVHSNRNTYLHWYLQKPGQSPQLLIYKVSNRFSGVPDRFSGSGSGTDFTLKISRVEAEDVGVYYCSQNTHVPPTFGQGTKVEIE
notes: copies: 2 + 2
- relative binding activity (human FcγRIIIa(F)): 10 % of GpH7-B3/GpL16-k0
- relative binding activity (human FcγRIa): 94 % of GpH7-B3/GpL16-k0
- relative binding activity (human FcγRIIa(R)): 16 % of GpH7-B3/GpL16-k0
- relative binding activity (human FcγRIIa(H)): 32 % of GpH7-B3/GpL16-k0

B16: GpH7-B3 variant G237P/GpL16-k0 (antibody, human IgG1)
heavy: not shown
light: DIVMTQSPLSLPVTPGEPASISCQASESLVHSNRNTYLHWYLQKPGQSPQLLIYKVSNRFSGVPDRFSGSGSGTDFTLKISRVEAEDVGVYYCSQNTHVPPTFGQGTKVEIE
notes: copies: 2 + 2
- relative binding activity (human FcγRIIIa(F)): 0 % of GpH7-B3/GpL16-k0
- relative binding activity (human FcγRIa): 3 % of GpH7-B3/GpL16-k0
- relative binding activity (human FcγRIIa(H)): 0 % of GpH7-B3/GpL16-k0
- relative binding activity (human FcγRIIb): 5 % of GpH7-B3/GpL16-k0
